{"source": "patent US7101851", "about": "(dated 2006)", "note": "Bridges are numbered along the chain shown (N, C = ends). Where no end group is shown, it is not given here.", "data": [{"target": "T1, alpha subunit of the human FcεRI receptor (IgE high affinity receptor), expressed on Chinese hamster ovary … (human, UniProt P12319 26-257)", "T1 construct": "whole, on cells; also called CHO FcεRI+ cells; FcεRIα", "T1 sequence (looked up)": "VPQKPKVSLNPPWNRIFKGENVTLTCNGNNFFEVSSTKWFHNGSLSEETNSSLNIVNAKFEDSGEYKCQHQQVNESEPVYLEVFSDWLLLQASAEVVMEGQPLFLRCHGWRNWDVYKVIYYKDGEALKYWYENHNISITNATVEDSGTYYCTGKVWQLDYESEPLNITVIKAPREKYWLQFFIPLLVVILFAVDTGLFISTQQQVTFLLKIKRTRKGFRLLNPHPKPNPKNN", "experiment": "inhibition of 125I-IgE binding to CHO cells expressing human FcεRI alpha; competitor IgE", "procedure": "To determine the ability of peptides to inhibit IgE binding to FcεRI, a cell-based binding assay was used with radiolabeled IgE. Chinese hamster ovary cells expressing the alpha subunit of the human FcεRI receptor were cultured overnight in Falcon 96 well microtiter plates at a concentration of 5 ×10^4 cells per well. The following day the cells were rinsed three times with PBS and then once with F12/DMEM. Peptide stocks were reconstituted in 100 mM Hepes buffered water, pH 7.2, at a concentration of 5 mg/mL. Working concentrations of the peptide were diluted in assay buffer (see below). 75 uL of a desired concentration of peptide was added to the top row of a separate 96 well microtiter plate and serially diluted 1:3 in 50 uL of the assay buffer (F12/DMEM, 1% BSA, 0.05% NaN_3 and 0.025 mM Hepes pH 7.2). Starting concentrations ranged from 50–500 uM. Next, 50 uL of the diluted peptide was transferred to the 96 microtiter well plate containing a monolayer of CHO FcεRI+ cells. […] Cells were […]", "units": {"IC50": "nM"}, "values": [{"binder": "VQCPHFCYVGEALCPDVCYV-NH2 (disulfide 7-14, 3-18; N-terminus assumed; SMILES CC(C)C[C@@H]1NC(=O)[C@H](C)NC(=O)[C@H](CCC(=O)O)NC(=O)CNC(=O)[C@H](C(C)C)NC(=O)[C@H](Cc2ccc(O)cc2)NC(=O)[C@@H]2CSSC[C@H](NC1=O)C(=O)N1CCC[C@H]1C(=O)N[C@@H](CC(=O)O)C(=O)N[C@@H](C(C)C)C(=O)N[C@H](C(=O)N[C@@H](Cc1ccc(O)cc1)C(=O)N[C@H](C(N)=O)C(C)C)CSSC[C@H](NC(=O)[C@H](CCC(N)=O)NC(=O)[C@@H](N)C(C)C)C(=O)N1CCC[C@H]1C(=O)N[C@@H](Cc1c[nH]cn1)C(=O)N[C@@H](Cc1ccccc1)C(=O)N2)", "note": "[IGE146]", "IC50": 890}, {"binder": "VQCPHFCYFGGAELCPDVCYV-NH2 (cysteine pairing not given here)", "note": "[IGE135]", "IC50": 47}, {"binder": "VQCPDFCYFGGAELCPDVCYV-NH2 (not fully specified (bridges); cysteine pairing not given here)", "note": "[IGE191]", "IC50": 210}, {"binder": "VQCPHFCYFGGAELCPGVCYV-NH2 (cysteine pairing not given here)", "note": "[IGE136]", "IC50": 119}, {"binder": "VQCPHFCYFGGAELCPDVCYV (not fully specified (bridges); cysteine pairing not given here)", "note": "[IGE151]", "IC50": 130}, {"binder": "CPHFCYELDYELCPDVCY-NH2 (not fully specified (bridges); cysteine pairing not given here)", "note": "[IGE155]", "IC50": 69}, {"binder": "VQCPHFCYELDYELCPDVCY-NH2 (not fully specified (bridges); cysteine pairing not given here)", "note": "[IGE153]", "IC50": 49}, {"binder": "VQCPHFCYFGAELCPDVCYV (disulfide 7-14, 3-18)", "note": "[IGE152]", "IC50": 52}, {"binder": "VQCPHFCYFGAELCPAVCYV-NH2 (disulfide 7-14, 3-18; N-terminus assumed; SMILES CC(C)C[C@@H]1NC(=O)[C@H](CCC(=O)O)NC(=O)[C@H](C)NC(=O)CNC(=O)[C@H](Cc2ccccc2)NC(=O)[C@H](Cc2ccc(O)cc2)NC(=O)[C@@H]2CSSC[C@H](NC1=O)C(=O)N1CCC[C@H]1C(=O)N[C@@H](C)C(=O)N[C@@H](C(C)C)C(=O)N[C@H](C(=O)N[C@@H](Cc1ccc(O)cc1)C(=O)N[C@H](C(N)=O)C(C)C)CSSC[C@H](NC(=O)[C@H](CCC(N)=O)NC(=O)[C@@H](N)C(C)C)C(=O)N1CCC[C@H]1C(=O)N[C@@H](Cc1c[nH]cn1)C(=O)N[C@@H](Cc1ccccc1)C(=O)N2)", "note": "[IGE169]", "IC50": 128}, {"binder": "VQCPHFCYELDYELCPWVCYV-NH2 (not fully specified (bridges); cysteine pairing not given here)", "note": "[IGE175]", "IC50": 57}, {"binder": "VQCPDFCYELDYELCPDVCYV-NH2 (not fully specified (bridges); cysteine pairing not given here)", "note": "[IGE190]", "IC50": 58}, {"binder": "IVCPRLCYELDYELCPDVCYV-NH2 (cysteine pairing not given here)", "note": "[IGE141]", "IC50": 131}, {"binder": "VQCPHFCYELDYELCPDVCYVGR (not fully specified (bridges); cysteine pairing not given here, produced as Z-domain fusion in E. coli and released with trypsin)", "note": "[IGE156]", "IC50": 30}]}]}
